These results are taken from PMC7531515.

Data set [1] addresses roledumab (human). Put plainly: native MS.
Data set [2] in a line: SEC.
The target of data set [3] is roledumab (human). Description: SEC + native MS.
Data set [4] addresses Fab fragment of roledumab (IgdE digestion) (human). Put plainly: native MS.
The target is the same in data set [5]. Description: SEC + native MS.
The target of data set [6] is F(ab’)2 fragment of roledumab (IdeS digestion) (human). Put plainly: native MS.
The target is the same in data set [7]. Put plainly: SEC + native MS.

B1: roledumab (antibody, V domains shown)
VH: QVQLVESGGGVVQPGRSLRLSCTASGFTFKNYAMHWVRQAPAKGLEWVATISYDGRNIQYADSVKGRFTFSRDNSQDTLYLQLNSLRPEDTAVYYCARPVRSRWLQLGLEDAFHIWGQGTMVTVSS
VL: AIRMTQSPSSFSASTGDRVTITCRASQDIRNYVAWYQQKSGKAPKFLIYAASTLQSGVPSRFSGSGSGTDFTLTINSLQSEDFATYYCQQYYNSPPTFGQGTRVEIT
As for B1, in data set [1], the relative abundance of dimer peak 2 (UV) was 20%; the relative abundance of dimer peak 3 (UV) stood at 13%; the relative abundance of dimer peak 4 (UV) was determined as 65%; the stoichiometry N (as a rule, the number of molecules, sites or subunits per partner or assembly) was 2. Besides, in data set [2], the “percent HMW species in the isolated HMW fraction” value was 85% of HMW species (peak 2). In data set [3], the relative abundance of dimer peak 1 (UV) stood at 46%, the relative abundance of dimer peak 2 (UV) was found to be 32%, the relative abundance of dimer peak 3 (UV) was 13% and the stoichiometry N was 2.

B2: Fab fragment of roledumab (IgdE digestion) (Fab, V domains shown)
VH: QVQLVESGGGVVQPGRSLRLSCTASGFTFKNYAMHWVRQAPAKGLEWVATISYDGRNIQYADSVKGRFTFSRDNSQDTLYLQLNSLRPEDTAVYYCARPVRSRWLQLGLEDAFHIWGQGTMVTVSS
VL: AIRMTQSPSSFSASTGDRVTITCRASQDIRNYVAWYQQKSGKAPKFLIYAASTLQSGVPSRFSGSGSGTDFTLTINSLQSEDFATYYCQQYYNSPPTFGQGTRVEIT
Regarding B2, in data set [4], the relative abundance of Fab dimers (UV) was determined as 10% and the stoichiometry N was 2. In addition, the stoichiometry N in data set [5] was found to be 2.

B3: F(ab’)2 fragment of roledumab (IdeS digestion) (domain or fragment)
VH: QVQLVESGGGVVQPGRSLRLSCTASGFTFKNYAMHWVRQAPAKGLEWVATISYDGRNIQYADSVKGRFTFSRDNSQDTLYLQLNSLRPEDTAVYYCARPVRSRWLQLGLEDAFHIWGQGTMVTVSS
VL: AIRMTQSPSSFSASTGDRVTITCRASQDIRNYVAWYQQKSGKAPKFLIYAASTLQSGVPSRFSGSGSGTDFTLTINSLQSEDFATYYCQQYYNSPPTFGQGTRVEIT
As to B3, in data set [6], the relative abundance of F(ab’)2 dimer (UV) amounted to 54% and the stoichiometry N is 2. For the same molecule, in data set [7], the relative abundance of F(ab’)2 dimer peak 1 (UV) was 32%, the relative abundance of F(ab’)2 dimer peak 2 (UV) turned out to be 16%, the relative abundance of F(ab’)2 dimer peak 3 (UV) was found to be 8% and the stoichiometry N was found to be 2.
